Laboratory results published in US20170022281A1 (AbbVie / Abbott, published 2017).

Tests used:
[1] = target: T1, human PRLR (Biacore antigen) (human, UniProt P16471 25-234, limits assumed); test: SPR Biacore
T1 construct: The construct injected over captured antibody is not described (a soluble form is likely); also called huPRLR
T1 sequence: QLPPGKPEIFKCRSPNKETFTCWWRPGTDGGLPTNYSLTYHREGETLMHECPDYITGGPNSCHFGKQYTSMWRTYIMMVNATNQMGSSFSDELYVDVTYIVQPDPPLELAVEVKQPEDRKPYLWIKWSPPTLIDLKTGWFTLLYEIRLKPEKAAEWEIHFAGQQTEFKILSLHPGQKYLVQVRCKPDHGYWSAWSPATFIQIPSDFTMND
Outline: (§1)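 Association rate, dissociation rate and dissociation constant were measured by surface plasmon resonance on a Biacore instrument. PRLR antigen was tested at 600 nM, 66.67 nM and 7.41 nM, a 3-point, 9-fold dilution series. Constants came from a 1:1 binding model fit (local Rmax, mass-transport term included) in Biacore T200 Evaluation Software.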

[2] = target: T2, cyno PRLR ECD-his6 protein (cyno); test: ELISA on ECD
T2 chain: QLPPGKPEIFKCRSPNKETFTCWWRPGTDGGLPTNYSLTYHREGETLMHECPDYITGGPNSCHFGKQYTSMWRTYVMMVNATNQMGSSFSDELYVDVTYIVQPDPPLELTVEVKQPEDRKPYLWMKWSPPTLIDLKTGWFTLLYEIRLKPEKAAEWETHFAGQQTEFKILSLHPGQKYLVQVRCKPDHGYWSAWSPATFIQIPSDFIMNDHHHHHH
Procedure: (§2) Plates were blocked for 1 hour with Superblock (Pierce) and washed (3×) with wash buffer (lx PBS (pH 7.4), 0.05% Tween 20). ECD proteins were bound to the appropriate antibody (1 hour) in binding buffer (wash buffer plus 10% Superblock), washed (3×, wash buffer), and then incubated with serial dilutions of antibodies (1 hour) in binding buffer. After washing (3×, wash buffer), secondary antibodies conjugated to HRP were bound (1 hour) in binding buffer, washed (3×, wash buffer), and incubated with TMB substrate (Pierce) to develop signal for 3-5 minutes, stopped with 2N H₂SO₄ and scanned at […]. Curves were fit with GraphPad 5 (Prizm) and EC50's were determined with curve fitting function of GraphPad 5.

[3] = target: T3, human PRLR ECD-Fc fusion protein (human, UniProt P16471 25-233); test: ELISA on ECD
T3 construct: not shown: Fc region (captured by goat anti-human Fc)
T3 sequence: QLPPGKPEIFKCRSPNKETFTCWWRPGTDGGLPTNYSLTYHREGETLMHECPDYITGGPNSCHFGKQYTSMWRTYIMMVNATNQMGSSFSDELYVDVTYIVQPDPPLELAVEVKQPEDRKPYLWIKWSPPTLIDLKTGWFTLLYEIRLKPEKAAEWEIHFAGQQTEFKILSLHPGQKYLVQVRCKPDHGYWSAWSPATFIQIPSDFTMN
Procedure: as §2

human PRLR on cells = target: T4, human PRLR on cells (human, UniProt P16471 25-622); test: cell-based or functional assay
T4 sequence: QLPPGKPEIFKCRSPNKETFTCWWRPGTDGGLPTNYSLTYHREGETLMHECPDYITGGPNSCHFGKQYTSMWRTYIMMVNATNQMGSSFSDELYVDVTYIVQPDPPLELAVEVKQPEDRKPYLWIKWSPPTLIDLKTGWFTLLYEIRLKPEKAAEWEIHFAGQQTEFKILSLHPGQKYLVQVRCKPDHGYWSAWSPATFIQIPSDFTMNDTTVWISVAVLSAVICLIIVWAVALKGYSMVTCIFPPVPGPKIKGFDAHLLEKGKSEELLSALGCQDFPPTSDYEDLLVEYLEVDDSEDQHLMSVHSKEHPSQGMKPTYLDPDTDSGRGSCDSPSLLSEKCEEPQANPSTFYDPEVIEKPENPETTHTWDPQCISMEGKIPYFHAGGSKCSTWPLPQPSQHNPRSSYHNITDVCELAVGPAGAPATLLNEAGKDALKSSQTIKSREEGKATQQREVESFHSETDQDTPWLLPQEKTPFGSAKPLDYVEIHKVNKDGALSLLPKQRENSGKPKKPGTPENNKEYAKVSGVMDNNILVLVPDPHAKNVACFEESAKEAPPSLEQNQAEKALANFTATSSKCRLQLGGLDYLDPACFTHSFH

[4] = target: cyno PRLR on Baf3-cyPRLR cells (cyno); test: cell-based or functional assay
[5] = target: T5, mouse PRLR on Baf3-mPRLR cells (mouse, UniProt Q08501 20-608); test: cell-based or functional assay
T5 sequence (looked up): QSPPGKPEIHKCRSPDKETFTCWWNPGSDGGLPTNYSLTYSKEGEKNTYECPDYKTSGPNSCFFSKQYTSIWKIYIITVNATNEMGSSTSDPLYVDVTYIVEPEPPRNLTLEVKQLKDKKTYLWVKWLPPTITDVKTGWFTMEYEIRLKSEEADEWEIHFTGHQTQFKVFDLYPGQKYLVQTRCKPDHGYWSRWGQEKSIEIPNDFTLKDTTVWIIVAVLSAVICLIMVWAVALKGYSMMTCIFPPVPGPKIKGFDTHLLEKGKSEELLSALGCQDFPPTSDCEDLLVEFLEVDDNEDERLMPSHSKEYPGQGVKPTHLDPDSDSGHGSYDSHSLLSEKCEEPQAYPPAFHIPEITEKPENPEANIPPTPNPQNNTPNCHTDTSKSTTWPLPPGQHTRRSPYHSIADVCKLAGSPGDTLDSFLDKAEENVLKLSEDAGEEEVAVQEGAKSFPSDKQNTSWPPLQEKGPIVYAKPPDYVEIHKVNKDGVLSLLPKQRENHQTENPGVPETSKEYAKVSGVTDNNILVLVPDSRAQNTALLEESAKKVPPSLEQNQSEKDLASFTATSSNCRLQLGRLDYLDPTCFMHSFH

[6] = target: T6, murine PRLR (Biacore antigen) (murine, UniProt Q08501 20-229, limits assumed); test: SPR Biacore
T6 construct: also called muPRLR
T6 sequence (looked up): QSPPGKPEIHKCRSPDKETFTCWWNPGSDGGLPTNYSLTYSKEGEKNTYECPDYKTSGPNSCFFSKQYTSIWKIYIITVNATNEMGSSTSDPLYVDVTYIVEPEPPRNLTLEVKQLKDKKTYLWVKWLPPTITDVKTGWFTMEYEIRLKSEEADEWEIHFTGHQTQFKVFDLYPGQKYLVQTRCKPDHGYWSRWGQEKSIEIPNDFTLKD
Outline: as §1

[7] = target: T7, cyno PRLR (Biacore antigen) (cyno, UniProt A0A2K5WXK1 25-234); test: SPR Biacore
T7 construct: also called cyPRLR
T7 sequence: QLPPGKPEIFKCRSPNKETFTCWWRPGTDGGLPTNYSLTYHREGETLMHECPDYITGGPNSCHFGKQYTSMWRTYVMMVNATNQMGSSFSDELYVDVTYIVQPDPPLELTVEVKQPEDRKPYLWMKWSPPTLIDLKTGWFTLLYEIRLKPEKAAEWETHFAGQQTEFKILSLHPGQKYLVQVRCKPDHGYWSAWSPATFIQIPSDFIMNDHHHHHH
Outline: as §1

| Binder | Kd [1] | koff [1] | kon [1] | EC50 [2] | EC50 [3] | Baf3-hPRLR proliferation IC50 (human PRLR on cells) | Baf3-cyPRLR proliferation IC50 [4] | Baf3-mPRLR proliferation IC50 [5] | Kd [6] | Kd [7] | koff [7] | kon [7] | koff [6] | kon [6] |
| --- | --- | --- | --- | --- | --- | --- | --- | --- | --- | --- | --- | --- | --- | --- |
| Ab14 (antibody, human IgG1, kappa, V domains shown, humanized from Ab6; G1; also called Ab1 HC.1 & Ab1 LC.1) VH: EVQLVQSGAEVKKPGSSVKVSCKASGYTFTTYWMHWVRQAPGQGLEWMGEIDPSDSYSNYNQKFKDRVTITADKSTSTAYMELSSLRSEDTAVYYCARNGGLGPAWFSYWGQGTLVTVSS VL: DIQMTQSPSSVSASVGDRVTITCKASQYVGTAVAWYQQKPGKAPKLLIYSASNRYTGVPSRFSGSGSGTDFTLTISSLQPEDFATYYCQQYSSYPWTFGGGTKVEIKR | 4.16 nM | 0.00458 s⁻¹ | 1.1e+06 M⁻¹ s⁻¹ | 0.031 nM | 0.0329 nM | 0.3 µg/mL | 1.15 µg/mL | > 30 µg/mL |  |  |  |  |  |  |
| Ab16 (antibody, human IgG1, kappa, V domains shown, humanized from Ab6; G1; also called Ab1 HC.1 and Ab1 LC.2) VH: EVQLVQSGAEVKKPGSSVKVSCKASGYTFTTYWMHWVRQAPGQGLEWMGEIDPSDSYSNYNQKFKDRVTITADKSTSTAYMELSSLRSEDTAVYYCARNGGLGPAWFSYWGQGTLVTVSS VL: EIVMTQSPATLSVSPGERATLSCKASQYVGTAVAWYQQKPGQAPRLLIYSASNRYTGIPARFSGSGSGTEFTLTISSLQSEDFAVYYCQQYSSYPWTFGGGTKVEIKR | 4.05 nM | 0.00562 s⁻¹ | 1.39e+06 M⁻¹ s⁻¹ | 0.0671 nM | 0.0641 nM | 0.46 µg/mL | 1.73 µg/mL | > 30 µg/mL |  |  |  |  |  |  |
| Ab15 (antibody, human IgG1, kappa, V domains shown, humanized from Ab6; G1; also called Ab1 HC.1 and Ab1 LC.1a) VH: EVQLVQSGAEVKKPGSSVKVSCKASGYTFTTYWMHWVRQAPGQGLEWMGEIDPSDSYSNYNQKFKDRVTITADKSTSTAYMELSSLRSEDTAVYYCARNGGLGPAWFSYWGQGTLVTVSS VL: DIQMTQSPSSVSASVGDRVTITCKASQYVGTAVAWYQQKPGKSPKLLIYSASNRYTGVPSRFSDSGSGTDFTLTISSLQPEDFATYFCQQYSSYPWTFGGGTKVEIKR | 0.837 nM | 0.000972 s⁻¹ | 1.16e+06 M⁻¹ s⁻¹ | 0.0551 nM | 0.0781 nM | 0.13 µg/mL | 0.19 µg/mL | > 30 µg/mL |  |  |  |  |  |  |
| Ab17 (antibody, human IgG1, kappa, V domains shown, humanized from Ab6; G1; also called Ab1 HC.1 and Ab1 LC.2a) VH: EVQLVQSGAEVKKPGSSVKVSCKASGYTFTTYWMHWVRQAPGQGLEWMGEIDPSDSYSNYNQKFKDRVTITADKSTSTAYMELSSLRSEDTAVYYCARNGGLGPAWFSYWGQGTLVTVSS VL: EIVMTQSPATLSVSPGERATLSCKASQYVGTAVAWYQQKPGQSPRLLIYSASNRYTGVPARFSDSGSGTEFTLTISSLQSEDFAVYFCQQYSSYPWTFGGGTKVEIKR | 1.06 nM | 0.00132 s⁻¹ | 1.25e+06 M⁻¹ s⁻¹ | 0.0788 nM | 0.0766 nM | 0.14 µg/mL | 0.27 µg/mL | > 30 µg/mL |  |  |  |  |  |  |
| Ab20 (antibody, human IgG1, kappa, V domains shown, humanized from Ab6; G1; also called Ab1 HC.1a and Ab1 LC.2) VH: EVQLVQSGAEVKKPGSSVKVSCKASGYTFTTYWMHWVRQAPGQGLEWIGEIDPSDSYSNYNQKFKDRATLTVDKSTSTAYMELSSLRSEDTAVYYCARNGGLGPAWFSYWGQGTLVTVSS VL: EIVMTQSPATLSVSPGERATLSCKASQYVGTAVAWYQQKPGQAPRLLIYSASNRYTGIPARFSGSGSGTEFTLTISSLQSEDFAVYYCQQYSSYPWTFGGGTKVEIKR | 2 nM | 0.00208 s⁻¹ | 1.04e+06 M⁻¹ s⁻¹ | 0.0711 nM | 0.0836 nM | 0.2 µg/mL | 0.5 µg/mL | > 30 µg/mL | 620 nM |  |  |  |  |  |
| Ab18 (antibody, human IgG1, kappa, V domains shown, humanized from Ab6; G1; also called Ab1 HC.1a and Ab1 LC.1) VH: EVQLVQSGAEVKKPGSSVKVSCKASGYTFTTYWMHWVRQAPGQGLEWIGEIDPSDSYSNYNQKFKDRATLTVDKSTSTAYMELSSLRSEDTAVYYCARNGGLGPAWFSYWGQGTLVTVSS VL: DIQMTQSPSSVSASVGDRVTITCKASQYVGTAVAWYQQKPGKAPKLLIYSASNRYTGVPSRFSGSGSGTDFTLTISSLQPEDFATYYCQQYSSYPWTFGGGTKVEIKR | 1.62 nM | 0.00171 s⁻¹ | 1.06e+06 M⁻¹ s⁻¹ | 0.111 nM | 0.0675 nM | 0.15 µg/mL | 0.4 µg/mL | > 30 µg/mL |  |  |  |  |  |  |
| Ab35 (antibody, human IgG1, kappa, humanized from Ab7; G1; also called Ab4 HC.1 and Ab4 LC.1) heavy: not shown light: DIVMTQTPLSLSVTPGQPASISCRSSQSLVHSNGNTYLHWYLQKPGQSPQLLIYKVSNRFSGVPDRFSGSGSGTDFTLKISRVEAEDVGVYYCSQSTHVPFTFGGGTKVEIKRTVAAPSVFIFPPSDEQLKSGTASVVCLLNNFYPREAKVQWKVDNALQSGNSQESVTEQDSKDSTYSLSSTLTLSKADYEKHKVYACEVTHQGLSSPVTKSFNRGEC | 13.3 nM | 0.0016 s⁻¹ | 120000 M⁻¹ s⁻¹ | 0.32 nM | 2.5 nM | 0.38 µg/mL | 0.65 µg/mL | > 30 µg/mL | 1580 nM | 13.5 nM | 0.00142 s⁻¹ | 105000 M⁻¹ s⁻¹ | 0.0785 s⁻¹ | 49800 M⁻¹ s⁻¹ |
| Ab37 (antibody, human IgG1, kappa, humanized from Ab7; G1; also called Ab4 HC.1 and Ab4 LC.1b) heavy: not shown light: DVVMTQTPLSLSVTPGQPASISCRSSQSLVHSNGNTYLHWYLQKPGQSPQLLIYKVSNRFSGVPDRFSGSGSGTDFTLKISRVEAEDVGVYYCSQSTHVPFTFGGGTKVEIKRTVAAPSVFIFPPSDEQLKSGTASVVCLLNNFYPREAKVQWKVDNALQSGNSQESVTEQDSKDSTYSLSSTLTLSKADYEKHKVYACEVTHQGLSSPVTKSFNRGEC | 12.3 nM | 0.00146 s⁻¹ | 119000 M⁻¹ s⁻¹ | 0.186 nM | 0.184 nM | 0.43 µg/mL | 0.44 µg/mL | > 30 µg/mL | 1670 nM | 12.3 nM | 0.00132 s⁻¹ | 107000 M⁻¹ s⁻¹ | 0.0687 s⁻¹ | 41100 M⁻¹ s⁻¹ |
